Blank lines part the entries; values can stand above or below the molecule they belong to.
Key:
[1] = molecular target: T1, insulin receptor tyrosine kinase (IRK) (Homo sapiens, UniProt P06213); experiment: BVR phosphorylation by the insulin receptor tyrosine kinase (IRK), in vitro [32P]-ATP assay; assay type: biochemical; settings: for decrease of BVR phosphorylation by IRK caused by point mutation / BVR phosphorylation by IRK (tyrosine mutants, in words): mutant vs wtBVR, IRK 2 h at 30° C.
T1 construct: the 48 kDa cytoplasmic domain of the β-subunit of IRK; purchased Biomol International (Plymouth, Pa.)
Experimental: BVR phosphoiylation by the insulin receptor tyrosine kinase (IRK): Phosphorylation of BVR by IRK was examined using GST-HBVR fusion protein and the 48 kDa cytoplasmic domain of the β-subunit of IRK. BVR (5 μg) was incubated in 50 μl of IRK kinase buffer containing 50 mM HEPES (pH 8.0), 20 mM MgCl2, 1 mM DTT in the presence of 0.05 μg IRK and 10 μM ATP labeled with 10 μCi [γ-^32P]-ATP. The reaction was started with the addition of labeled ATP and incubated for 2-4 h. Reactions were terminated by addition of Laemmli sample buffer and boiled for 3 min. Samples were subjected to 8% SDS-PAGE and transferred to PVDF membranes for autoradiography.

human BVR = experiment: BVR autophosphorylation; assay type: biochemical; settings: pH 8.4, 30 mM MnCl2, 2 h, 30° C.
Experimental: BVR autophosphorylation and kinase activity: To detect autophosphorylation of BVR, GST-hBVR of wild type (wt) and mutant variants were incubated in 50 mM HEPES buffer (pH 8.4) in the presence of 30 mM MnCl2 and 1 mM DTT for 2 h at 30° C. The reaction was started with the addition of 10 μM ATP labeled with 10 μCi [γ-^32P]-ATP and was stopped with the addition of Laemmli sample buffer. Samples were boiled for 3 min and applied to a 8% SDS-PAGE gels, transferred to a PVDF membrane, and then visualized by autoradiography. To measure kinase activity, GST-BVR (5 μg) was incubated in 50 μl kinase buffer containing 50 mM HEPES buffer (pH 8.4), 20 mM MgCl2, 30 mM MnCl2, 1 mM DTT and 10 μM ATP labeled with 10 μCi [γ-^32P]-ATP in the presence of 5 μg substrates: IRS-1 or Raytide or poly glu/tyr (4:1) for 2 h at 30° C. The reaction was started with the addition of ATP and terminated by adding 120 μl 10% H3PO4. 100 μl aliquots were directly transferred to P81 Whatman filters which were subsequently washed extensively in 0.75% phosphoric acid at room temperature. Finally, the filters were submerged in acetone for 5 min, dried, and retained counts were measured using a Beckman LS 6500 liquid scintillation counter (Beckman Coulter, Fullerton, Calif.).

T1 sequence (P06213 980-1382 limits assumed): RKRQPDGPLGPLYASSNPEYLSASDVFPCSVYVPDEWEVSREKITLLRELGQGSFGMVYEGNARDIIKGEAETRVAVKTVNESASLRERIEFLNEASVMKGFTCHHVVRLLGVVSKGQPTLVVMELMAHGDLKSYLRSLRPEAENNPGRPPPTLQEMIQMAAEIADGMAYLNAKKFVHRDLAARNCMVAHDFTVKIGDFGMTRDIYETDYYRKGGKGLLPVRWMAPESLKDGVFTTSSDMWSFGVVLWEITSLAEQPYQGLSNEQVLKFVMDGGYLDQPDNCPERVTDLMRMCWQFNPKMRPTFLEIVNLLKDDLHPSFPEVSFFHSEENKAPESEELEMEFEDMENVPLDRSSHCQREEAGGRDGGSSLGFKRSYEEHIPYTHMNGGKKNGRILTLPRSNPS

effect on phosphorylation of BVR by IRK ([1]; 50 mM EDTA (pH 8.0), 30° C., 2 h, anti-phosphotyrosine blot): abolished phosphorylation of BVR by IRK
Molecule: O=C(O)CN(CCN(CC(=O)O)CC(=O)O)CC(=O)O [EDTA, reference compound]

Molecule: O=c1c(-c2ccc(O)cc2)coc2cc(O)cc(O)c12 [Genestein, reference compound]
effect on BVR phosphorylation mediated by IRK ([1]; genestein 200 μM, HEPES pH 8.0, 20 mM MgCl2): significantly inhibited BVR phosphorylation mediated by IRK

decrease of BVR phosphorylation by IRK caused by point mutation [1]: 40%
B1: Y^228: human BVR point mutant, NRYLS to NRFLS (protein, UniProt P53004 3-296, looked up, variant Y228F)
Biliverdin reductase A: AEPERKFGVVVVGVGRAGSVRMRDLRNPHPSSAFLNLIGFVSRRELGSIDGVQQISLEDALSSQEVEVAYICSESSSHEDYIRQFLNAGKHVLVEYPMTLSLAAAQELWELAEQKGKVLHEEHVELLMEEFAFLKKEVVGKDLLKGSLLFTAGPLEEERFGFPAFSGISRLTWLVSLFGELSLVSATLEERKEDQYMKMTVCLETEKKSPLSWIEEKGPGLKRNRFLSFHFKSGSLENVPNVGVNKNIFLKDQNIFVQKLLGQFSEKELAAEKKRILHCLGLAEEIQKYCCSRK
autophosphorylation of BVR mutants (human BVR): did not result in significant changes in autophosphorylation of BVR

decrease of BVR phosphorylation by IRK caused by point mutation [1]: 49%
B2: Y^291: human BVR point mutant, QKYCC to QKFCC (protein, UniProt P53004 3-296, looked up, variant Y291F)
Biliverdin reductase A: AEPERKFGVVVVGVGRAGSVRMRDLRNPHPSSAFLNLIGFVSRRELGSIDGVQQISLEDALSSQEVEVAYICSESSSHEDYIRQFLNAGKHVLVEYPMTLSLAAAQELWELAEQKGKVLHEEHVELLMEEFAFLKKEVVGKDLLKGSLLFTAGPLEEERFGFPAFSGISRLTWLVSLFGELSLVSATLEERKEDQYMKMTVCLETEKKSPLSWIEEKGPGLKRNRYLSFHFKSGSLENVPNVGVNKNIFLKDQNIFVQKLLGQFSEKELAAEKKRILHCLGLAEEIQKFCCSRK
autophosphorylation of BVR mutants (human BVR): did not result in significant changes in autophosphorylation of BVR

B3: Y^198 plus Y^228: human BVR double mutant, DQFMK and NRFLS (protein, UniProt P53004 3-296, looked up, variant Y198F Y228F)
Biliverdin reductase A: AEPERKFGVVVVGVGRAGSVRMRDLRNPHPSSAFLNLIGFVSRRELGSIDGVQQISLEDALSSQEVEVAYICSESSSHEDYIRQFLNAGKHVLVEYPMTLSLAAAQELWELAEQKGKVLHEEHVELLMEEFAFLKKEVVGKDLLKGSLLFTAGPLEEERFGFPAFSGISRLTWLVSLFGELSLVSATLEERKEDQFMKMTVCLETEKKSPLSWIEEKGPGLKRNRFLSFHFKSGSLENVPNVGVNKNIFLKDQNIFVQKLLGQFSEKELAAEKKRILHCLGLAEEIQKYCCSRK
BVR phosphorylation by IRK (tyrosine mutants, in words) [1]: little or no phosphorylation was detected

B4: T^202: human BVR point mutant, KMTVC to KMAVC (protein, UniProt P53004 3-296, looked up, variant T202A)
Biliverdin reductase A: AEPERKFGVVVVGVGRAGSVRMRDLRNPHPSSAFLNLIGFVSRRELGSIDGVQQISLEDALSSQEVEVAYICSESSSHEDYIRQFLNAGKHVLVEYPMTLSLAAAQELWELAEQKGKVLHEEHVELLMEEFAFLKKEVVGKDLLKGSLLFTAGPLEEERFGFPAFSGISRLTWLVSLFGELSLVSATLEERKEDQYMKMAVCLETEKKSPLSWIEEKGPGLKRNRYLSFHFKSGSLENVPNVGVNKNIFLKDQNIFVQKLLGQFSEKELAAEKKRILHCLGLAEEIQKYCCSRK
autophosphorylation of BVR mutants (human BVR): found to be a target of autophosphorylation

B5: Y^198 plus Y^291: human BVR double mutant, DQFMK and QKFCC (protein, UniProt P53004 3-296, looked up, variant Y198F Y291F)
Biliverdin reductase A: AEPERKFGVVVVGVGRAGSVRMRDLRNPHPSSAFLNLIGFVSRRELGSIDGVQQISLEDALSSQEVEVAYICSESSSHEDYIRQFLNAGKHVLVEYPMTLSLAAAQELWELAEQKGKVLHEEHVELLMEEFAFLKKEVVGKDLLKGSLLFTAGPLEEERFGFPAFSGISRLTWLVSLFGELSLVSATLEERKEDQFMKMTVCLETEKKSPLSWIEEKGPGLKRNRYLSFHFKSGSLENVPNVGVNKNIFLKDQNIFVQKLLGQFSEKELAAEKKRILHCLGLAEEIQKFCCSRK
BVR phosphorylation by IRK (tyrosine mutants, in words) [1]: little or no phosphorylation was detected

From patent US8455427B2, “Methods of modifying insulin signaling using biliverdin reductase” (University of Rochester, priority 2005, dated 2013)
